Protein stability index data for 94 variants are collected here from the supplement of paper PMC10567573.

To fix the notation:
B1: CLCN6 (parent)
chain: VGEIVGIITRHNLTYEFLQARLRQ
B2: C20orf112 (parent)
chain: YANGGLNYSYRGYGALSSNLQPPA
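Further: lentivirally expressed fusions sorted by FACS into six bins by GFP to DsRed ratio, PSI derived from sequencing read proportions per bin multiplied by bin number.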

The first series covers variants of B1. The experiment in a line: protein stability index of a GFP-peptide fusion (GPS, HEK-293T) (PSI 1-6); higher = more stable. Particulars: c terminus: a fixed tail appended.
Regarding VGEIVGIITRHNLTYEFLQLRLRQ [A20L], the protein stability index was 2.08.

With VGEIVGCITRHNLTYEFLQARLRQ [I7C], the protein stability index was 2.31.

Turning to VGEIVGLITRHNLTYEFLQARLRQ [I7L], the protein stability index is 2.53.

Take VGEIVGIITRHNLTYKFLQARLRQ [E16K]: the protein stability index is 1.52.

In the case of VGEIVGIIERHNLTYEFLQARLRQ [T9E], the protein stability index was determined as 1.38.

VGEIVGIIGRHNLTYEFLQARLRQ [T9G]: the protein stability index was found to be 2.63.

VGEIVGIIKRHNLTYEFLQARLRQ [T9K]: the protein stability index was 1.29.

Turning to VGEIVGIIDRHNLTYEFLQARLRQ [T9D], the protein stability index turned out to be 1.92.

Turning to VGEIVGIITRHNQTYEFLQARLRQ [L13Q], the protein stability index came out at 1.69.

Take VGEIVGIITRHNWTYEFLQARLRQ [L13W]: the protein stability index came out at 3.73.

Take VGEIVGIITRHNHTYEFLQARLRQ [L13H]: the protein stability index was 1.51.

Take VGEIVGIITRHNGTYEFLQARLRQ [L13G]: the protein stability index worked out at 1.7.

Consider VGEIVGIITRHNLTFEFLQARLRQ [Y15F], for which the protein stability index is 2.95.

Consider VGEIVGIITRHNLTREFLQARLRQ [Y15R], for which the protein stability index was determined as 4.35.

With VGEIVGIITRHNLTYEFLQARLVQ [R23V], the protein stability index turned out to be 5.95.

In the case of VGEIVGIITRHNLTYEFLQARLFQ [R23F], the protein stability index is 2.58.

On to VGEIVGIITRHNLTYEGLQARLRQ [F17G], for which the protein stability index was found to be 3.15.

Take IGEIVGIITRHNLTYEFLQARLRQ [V1I]: the protein stability index was 2.88.

For the variant EGEIVGIITRHNLTYEFLQARLRQ [V1E], the protein stability index was found to be 2.25.

Consider YGEIVGIITRHNLTYEFLQARLRQ [V1Y], for which the protein stability index is 2.83.

On to MGEIVGIITRHNLTYEFLQARLRQ [V1M], for which the protein stability index is 2.29.

Regarding VGEIVGIITRHNLTYEFLQARLRP [Q24P], the protein stability index was found to be 2.15.

In the case of VGEIVGIITRHNLTYEFLQARLRK [Q24K], the protein stability index worked out at 1.61.

VGEIVGIITRHNLTYEFLQARLRE [Q24E]: the protein stability index is 3.09.

For VQEIVGIITRHNLTYEFLQARLRQ [G2Q], the protein stability index came out at 1.13.

In the case of VPEIVGIITRHNLTYEFLQARLRQ [G2P], the protein stability index was found to be 1.86.

With VHEIVGIITRHNLTYEFLQARLRQ [G2H], the protein stability index was found to be 2.81.

VAEIVGIITRHNLTYEFLQARLRQ [G2A]: the protein stability index was 3.29.

Take VCEIVGIITRHNLTYEFLQARLRQ [G2C]: the protein stability index was determined as 2.06.

With VEEIVGIITRHNLTYEFLQARLRQ [G2E], the protein stability index was 1.75.

Take VGEIVTIITRHNLTYEFLQARLRQ [G6T]: the protein stability index was found to be 3.72.

VGEIVGIITRHNLTYEFLPARLRQ [Q19P]: the protein stability index came to 1.62.

Consider VGEIVGIITRHNLTYEFLKARLRQ [Q19K], for which the protein stability index stood at 4.39.

For the variant VGEIVGIITRHNLTYEFLGARLRQ [Q19G], the protein stability index came to 1.52.

On to VGEIVGIITRHNLTYEFLYARLRQ [Q19Y], for which the protein stability index was found to be 1.01.

Turning to VGEIAGIITRHNLTYEFLQARLRQ [V5A], the protein stability index came to 1.89.

Turning to VGEITGIITRHNLTYEFLQARLRQ [V5T], the protein stability index is 1.49.

On to VGEIPGIITRHNLTYEFLQARLRQ [V5P], for which the protein stability index was 2.46.

VGEIYGIITRHNLTYEFLQARLRQ [V5Y]: the protein stability index amounted to 2.19.

On to VGEIKGIITRHNLTYEFLQARLRQ [V5K], for which the protein stability index came to 1.38.

On to VGEIVGIITRHNLEYEFLQARLRQ [T14E], for which the protein stability index worked out at 1.22.

For VGEIVGIITRHNLTYEFLQARDRQ [L22D], the protein stability index was 1.51.

For VGEIVGIITRHNLTYEFLQARVRQ [L22V], the protein stability index was determined as 3.2.

Take VGEIVGIITRHNLTYEFLQARHRQ [L22H]: the protein stability index turned out to be 1.93.

Regarding VGEIVGIITRHNLTYEFLQARNRQ [L22N], the protein stability index is 1.15.

Consider VGEIVGIITRHNLTYEFLQARYRQ [L22Y], for which the protein stability index was 2.44.

In the case of VGEIVGIITRHNLTYEFLQARERQ [L22E], the protein stability index was determined as 1.04.

VGEIVGIITRHNLTYEFLQAQLRQ [R21Q]: the protein stability index came to 2.57.

As for VGEIVGIITRHNLTYEFLQAGLRQ [R21G], the protein stability index worked out at 1.89.

For VGEIVGIITRHNLTYEFLQAKLRQ [R21K], the protein stability index came out at 1.06.

For VGENVGIITRHNLTYEFLQARLRQ [I4N], the protein stability index was determined as 2.37.

VGEVVGIITRHNLTYEFLQARLRQ [I4V]: the protein stability index amounted to 2.06.

Regarding VGEQVGIITRHNLTYEFLQARLRQ [I4Q], the protein stability index came out at 2.38.

In the case of VGEIVGICTRHNLTYEFLQARLRQ [I8C], the protein stability index was 1.16.

As for VGEIVGIATRHNLTYEFLQARLRQ [I8A], the protein stability index was determined as 1.27.

Consider VGEIVGIRTRHNLTYEFLQARLRQ [I8R], for which the protein stability index turned out to be 2.64.

VGEIVGIQTRHNLTYEFLQARLRQ [I8Q]: the protein stability index came out at 2.47.

Turning to VGEIVGILTRHNLTYEFLQARLRQ [I8L], the protein stability index is 2.03.

Regarding VGEIVGIITRHNLTYEFSQARLRQ [L18S], the protein stability index is 1.02.

With VGEIVGIITRHNLTYEFYQARLRQ [L18Y], the protein stability index is 4.04.

Turning to VGEIVGIITRHNLTYEFAQARLRQ [L18A], the protein stability index is 2.67.

As to VGEIVGIITRHNLTYEFPQARLRQ [L18P], the protein stability index turned out to be 2.81.

In the case of VGEIVGIITRHELTYEFLQARLRQ [N12E], the protein stability index was determined as 1.16.

Regarding VGEIVGIITRHRLTYEFLQARLRQ [N12R], the protein stability index was 2.69.

Consider VGQIVGIITRHNLTYEFLQARLRQ [E3Q], for which the protein stability index was 3.17.

With VGYIVGIITRHNLTYEFLQARLRQ [E3Y], the protein stability index is 3.28.

Regarding VGRIVGIITRHNLTYEFLQARLRQ [E3R], the protein stability index was 2.51.

For VGEIVGIITRDNLTYEFLQARLRQ [H11D], the protein stability index came to 2.48.

Variants of B2 are the subject of another series. The description is as above. Particulars: c terminus: a fixed tail appended.
Consider YANGGLNYSYRGYGALSSNLQPVA [P23V], for which the protein stability index turned out to be 1.84.

For the variant YANGGLNYSYRGYGALSSNLQPWA [P23W], the protein stability index was 2.61.

On to YANGGLNYSYRGYGALSSNLQPSA [P23S], for which the protein stability index is 1.65.

For the variant YANGGLNYSYRGYGALSSNLQPYA [P23Y], the protein stability index was found to be 1.9.

As for YANGGLNYSYRGYGALSSNLQPTA [P23T], the protein stability index came out at 1.6.

Take YANGGLNYSYRGYGALSSNLQPQA [P23Q]: the protein stability index was found to be 1.77.

In the case of YANGGLNYSYRGYGALSSNLQPRA [P23R], the protein stability index amounted to 1.81.

Regarding YANGGLNYSYRGYGALSSNLQPPD [A24D], the protein stability index came to 1.86.

With YANGGLNYSYRGYGALSSNLQPPH [A24H], the protein stability index came out at 2.19.

Take YANGGLNYSYRGYGALSSNLQPPK [A24K]: the protein stability index came out at 2.

Consider YANGGLNYSYRGYGALSSNLQPPP [A24P], for which the protein stability index amounted to 2.73.

Take YANGGLNYSYRGYGALSSNLQPPW [A24W]: the protein stability index came to 1.86.

Turning to YANGGLNYSYRGYGALSSNLQPPQ [A24Q], the protein stability index came out at 2.27.

Regarding YANGGLNYSYRGYGALSSNLQPPI [A24I], the protein stability index worked out at 2.43.

For YANGGLNYSYRGYGALSSNLQPPS [A24S], the protein stability index was 1.82.

Take YANGGLNYSYRGYGALSSNLQPPV [A24V]: the protein stability index was 2.23.

As to YANGGLNYSYRGYGALSSNLQPPR [A24R], the protein stability index turned out to be 2.48.

For the variant YANGGLNYSYRGYGALSSNLQPPY [A24Y], the protein stability index worked out at 1.75.

For the variant YANGGLNYSYRGYGALSSNLQPPF [A24F], the protein stability index was determined as 1.78.

With YANGGLNYSYRGYGALSSNLQPPT [A24T], the protein stability index stood at 2.52.

In the case of YANGGLNYSYRGYGALSSNLQPPE [A24E], the protein stability index is 1.95.

Consider YANGGLNYSYRGYGALSSNLQPPG [A24G], for which the protein stability index was 3.04.

For YANGGLNYSYRGYGALSSNLQPPC [A24C], the protein stability index was found to be 2.37.

As to YANGGLNYSYRGYGALSSNLQPPN [A24N], the protein stability index worked out at 1.9.

Consider YANGGLNYSYRGYGALSSNLQPPL [A24L], for which the protein stability index was determined as 1.62.

With YANGGLNYSYRGYGALSSNLQPPM [A24M], the protein stability index was determined as 1.35.
